Experimental findings from patent US20160264649A1 (published 2016) are described below.

B1: 1496 C09 γ3 017 + 1496 C09 λ3 024 (antibody, V domains shown)
VH: QRLVESGGGVVQPGSSLRLSCAASGFDFSRQGMHWVRQAPGQGLEWVAFIKYDGSEKYHADSVWGRLSISRDNSKDTLYLQMNSLRVEDTATYFCVREAGGPDYRNGYNYYDFYDGYYNYHYMDVWGKGTTVTVSS
VL: QSALTQPASVSGSPGQTITISCNGTSSDVGGFDSVSWYQQSPGKAPKVMVFDVSHRPSGISNRFSGSKSGNTASLTISGLHIEDEGDYFCSSLTDRSHRIFGGGTKVTVLG
B2: 1443_C16 (PG16) (TCN-116) (antibody, V domains shown)
VH: QEQLVESGGGVVQPGGSLRLSCLASGFTFHKYGMHWVRQAPGKGLEWVALISDDGMRKYHSDSMWGRVTISRDNSKNTLYLQFSSLKVEDTAMFFCAREAGGPIWHDDVKYYDFNDGYYNYHYMDVWGKGTTVTVSS
VL: B1 VL
B3: 1460_G14 (PGG14) (antibody, human IgG1, kappa, V domains shown)
VH: QVLLVQSGTEVKKPGSSVKVSCQASGGAFSSYAFSWVRQAPGQGLEWMGMITPVFGETKYAPRFQGRLTLTAEESLSTTYMELRSLTSDDTAFYYCTRDRRVVPMATDNWLDPWGQGTLVTVSS
VL: DIQLTQSPSSLSASVGDRVTVTCRASQTIHTYLNWYQQIPGKAPKLLIYGASTLQSGVPSRFSGSGSGTDFTLTINSLQPEDFATYYCQQSYSTPRTFGQGTRLDIKR
B4: 1495_C14 (PGC14) (antibody, human IgG1, lambda, V domains shown)
VH: DGHLVQSGVEVKKTGATVKISCKVSGYSFIDYYLHWVQRAPGKGLEWVGLIDPENGEARYAEKFQGRVTIIADTSIDTGYMEMRSLKSEDTAVYFCAAGAVGADSGSWFDPWGQGTLVTVSS
VL: SYELTQPPSVSVSPGQTASITCSGSKLGDKYVSWYQLRPGQSPILVMYENDRRPSGIPERFSGSNSGDTATLTISGTQALDEADFYCQAWETTTTTFVFFGGGTQLTVLG
B5: 1496_C09 (PG9) (TCN-109) (antibody, V domains shown)
VH: B1 VH
VL: QSALTQPASVSGSPGQSITISCNGTSNDVGGYESVSWYQQHPGKAPKVVIYDVSKRPSGVSNRFSGSKSGNTASLTISGLQAEDEGDYYCKSLTSTRRRVFGTGTKLTVLG
B6: 1456_P20 (PG20) (antibody, human IgG1, kappa, V domains shown)
VH: QVRLVQSGPEVKKPGSSVTVSCQASGGTFSSYAFTWVRQAPGQGLEWLGMVTPIFGEAKYSQRFEGRVTITADESTSTTSIELRGLTSEDTAIYYCARDRRAVPIATDNWLDPWGQGTLVTVSS
VL: B3 VL with T20S, V21I, H30N, T31N, I39T, T53N, S56N, N76S, Y92F

Substitutions are numbered along the chain they refer to.

HIV-1 JR-CSF Env (gp160), sequence (P20871 32-848): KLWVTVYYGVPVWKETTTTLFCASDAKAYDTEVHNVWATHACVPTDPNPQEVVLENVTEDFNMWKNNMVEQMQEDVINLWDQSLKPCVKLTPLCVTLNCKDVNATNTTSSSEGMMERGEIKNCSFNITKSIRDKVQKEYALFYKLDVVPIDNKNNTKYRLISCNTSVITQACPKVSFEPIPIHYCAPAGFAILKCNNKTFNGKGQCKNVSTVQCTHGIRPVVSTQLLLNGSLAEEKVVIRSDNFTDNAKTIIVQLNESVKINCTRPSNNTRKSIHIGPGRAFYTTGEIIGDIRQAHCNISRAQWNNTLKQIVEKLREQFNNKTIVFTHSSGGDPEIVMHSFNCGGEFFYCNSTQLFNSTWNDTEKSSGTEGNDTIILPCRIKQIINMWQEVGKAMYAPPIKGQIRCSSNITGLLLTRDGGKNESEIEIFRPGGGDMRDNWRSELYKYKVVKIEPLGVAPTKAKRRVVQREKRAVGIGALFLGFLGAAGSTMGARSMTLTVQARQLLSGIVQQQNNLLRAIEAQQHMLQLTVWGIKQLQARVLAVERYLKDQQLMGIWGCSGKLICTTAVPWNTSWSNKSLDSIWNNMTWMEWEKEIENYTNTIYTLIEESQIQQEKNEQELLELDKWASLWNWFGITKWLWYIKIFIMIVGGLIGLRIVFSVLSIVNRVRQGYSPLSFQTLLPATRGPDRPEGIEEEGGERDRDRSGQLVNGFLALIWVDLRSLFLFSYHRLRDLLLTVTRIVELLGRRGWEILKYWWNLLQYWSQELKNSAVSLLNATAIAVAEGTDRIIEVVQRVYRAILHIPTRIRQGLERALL

The first assay addresses T1, HIV-1 SF162 Env (HIV-1 strain SF162, UniProt P19550 32-847). Kind of assay: cell-based or functional assay.
With B1, the “Neutralization Index SF162 (clonal H and L transfectant)” value (“Neutralization Index SF162” for short) is 0.94.

In the case of B2, the “Neutralization Index SF162” value was found to be 0.67.

In the case of B3, the “Neutralization Index SF162” value was 39.4.

For the next assay, the target named is HIV-1 93IN905 Env (HIV-1 strain 93IN905). The assay is described as follows: cell-based or functional assay.
In the case of B4, the “IC50 neutralization, 1 hour virus/Ab incubation” value was over 50 µg/mL and the “IC50 neutralization, 18 hour virus/Ab incubation” value worked out at 0.146 µg/mL.

As to B5, the “IC50 neutralization, 1 hour virus/Ab incubation” value was found to be 0.144 µg/mL and the “IC50 neutralization, 18 hour virus/Ab incubation” value is 0.0619 µg/mL.

B2: the “IC50 neutralization, 1 hour virus/Ab incubation” value was determined as 0.33 µg/mL and the “IC50 neutralization, 18 hour virus/Ab incubation” value was 0.255 µg/mL.

With B6, the “IC50 neutralization, 1 hour virus/Ab incubation” value is over 50 µg/mL and the “IC50 neutralization, 18 hour virus/Ab incubation” value is 3.84 µg/mL.

In the case of B3, the “IC50 neutralization, 1 hour virus/Ab incubation” value was over 50 µg/mL and the “IC50 neutralization, 18 hour virus/Ab incubation” value came out at 3.17 µg/mL.

The target in a further assay is aMLV Env (aMLV). Kind of assay: cell-based or functional assay.
For B4, the “IC50 neutralization, 1 hour virus/Ab incubation” value was over 50 µg/mL and the “IC50 neutralization, 18 hour virus/Ab incubation” value was over 50 µg/mL.

As for B5, the “IC50 neutralization, 1 hour virus/Ab incubation” value was over 50 µg/mL and the “IC50 neutralization, 18 hour virus/Ab incubation” value is over 50 µg/mL.

For B2, the “IC50 neutralization, 1 hour virus/Ab incubation” value is over 50 µg/mL and the “IC50 neutralization, 18 hour virus/Ab incubation” value was over 50 µg/mL.

Take B6: the “IC50 neutralization, 1 hour virus/Ab incubation” value is over 50 µg/mL and the “IC50 neutralization, 18 hour virus/Ab incubation” value was over 50 µg/mL.

For the molecule B3, the “IC50 neutralization, 1 hour virus/Ab incubation” value was over 50 µg/mL and the “IC50 neutralization, 18 hour virus/Ab incubation” value is over 50 µg/mL.

Another assay concerns the target HIV-1 92BR020 Env (HIV-1 strain 92BR020). Kind of assay: cell-based or functional assay.
For B4, the “IC50 neutralization, 1 hour virus/Ab incubation” value turned out to be 1.17 µg/mL and the “IC50 neutralization, 18 hour virus/Ab incubation” value came out at 0.244 µg/mL.

With B5, the “IC50 neutralization, 1 hour virus/Ab incubation” value is over 50 µg/mL and the “IC50 neutralization, 18 hour virus/Ab incubation” value was over 50 µg/mL.

As to B2, the “IC50 neutralization, 1 hour virus/Ab incubation” value is over 50 µg/mL and the “IC50 neutralization, 18 hour virus/Ab incubation” value was over 50 µg/mL.

B6: the “IC50 neutralization, 1 hour virus/Ab incubation” value was over 50 µg/mL and the “IC50 neutralization, 18 hour virus/Ab incubation” value was over 50 µg/mL.

In the case of B3, the “IC50 neutralization, 1 hour virus/Ab incubation” value was over 50 µg/mL and the “IC50 neutralization, 18 hour virus/Ab incubation” value is over 50 µg/mL.

A further assay has as its target HIV-1 JR-CSF Env (gp160) (HIV-1 isolate JR-CSF, UniProt P20871 32-848). Kind of assay: cell-based or functional assay.
Turning to B4, the “IC50 neutralization, 1 hour virus/Ab incubation” value was over 50 µg/mL and the “IC50 neutralization, 18 hour virus/Ab incubation” value was over 50 µg/mL.

As for B2, the “IC50 neutralization, 1 hour virus/Ab incubation” value was under 0.0025 µg/mL and the “IC50 neutralization, 18 hour virus/Ab incubation” value is under 0.0025 µg/mL.

With B6, the “IC50 neutralization, 1 hour virus/Ab incubation” value is over 50 µg/mL and the “IC50 neutralization, 18 hour virus/Ab incubation” value was over 50 µg/mL.

The next assay deals with HIV-1 NL43 Env (HIV-1 strain NL43). Kind of assay: cell-based or functional assay.
Regarding B4, the “IC50 neutralization, 1 hour virus/Ab incubation” value amounted to 0.35 µg/mL and the “IC50 neutralization, 18 hour virus/Ab incubation” value is 0.15 µg/mL.

For B5, the “IC50 neutralization, 1 hour virus/Ab incubation” value is 0.294 µg/mL and the “IC50 neutralization, 18 hour virus/Ab incubation” value is 38 µg/mL.

As for B2, the “IC50 neutralization, 1 hour virus/Ab incubation” value is under 0.0025 µg/mL and the “IC50 neutralization, 18 hour virus/Ab incubation” value came out at 4.99 µg/mL.

In the case of B6, the “IC50 neutralization, 1 hour virus/Ab incubation” value came to 0.2 µg/mL and the “IC50 neutralization, 18 hour virus/Ab incubation” value amounted to 0.05 µg/mL.

As for B3, the “IC50 neutralization, 1 hour virus/Ab incubation” value is 0.17 µg/mL and the “IC50 neutralization, 18 hour virus/Ab incubation” value came out at 0.05 µg/mL.

The target of a further assay is HIV-1 IAVI_C22 Env (HIV-1 strain IAVI C22). The assay is described as follows: cell-based or functional assay.
With B4, the “IC50 neutralization, 1 hour virus/Ab incubation” value is over 50 µg/mL and the “IC50 neutralization, 18 hour virus/Ab incubation” value was found to be 13.4 µg/mL.

On to B5, for which the “IC50 neutralization, 1 hour virus/Ab incubation” value worked out at 24.9 µg/mL and the “IC50 neutralization, 18 hour virus/Ab incubation” value is 2.11 µg/mL.

Consider B2, for which the “IC50 neutralization, 1 hour virus/Ab incubation” value stood at 0.114 µg/mL and the “IC50 neutralization, 18 hour virus/Ab incubation” value is 0.106 µg/mL.

Regarding B6, the “IC50 neutralization, 1 hour virus/Ab incubation” value was over 50 µg/mL and the “IC50 neutralization, 18 hour virus/Ab incubation” value is over 50 µg/mL.

For B3, the “IC50 neutralization, 1 hour virus/Ab incubation” value was over 50 µg/mL and the “IC50 neutralization, 18 hour virus/Ab incubation” value is over 50 µg/mL.

A further assay concerns the target HIV-1 92TH021 Env (HIV-1 strain 92TH021). Kind of assay: cell-based or functional assay.
Regarding B4, the “IC50 neutralization, 1 hour virus/Ab incubation” value is over 50 µg/mL and the “IC50 neutralization, 18 hour virus/Ab incubation” value was over 50 µg/mL.

B5: the “IC50 neutralization, 1 hour virus/Ab incubation” value is 0.0612 µg/mL and the “IC50 neutralization, 18 hour virus/Ab incubation” value came to 0.0571 µg/mL.

Turning to B2, the “IC50 neutralization, 1 hour virus/Ab incubation” value worked out at 0.136 µg/mL and the “IC50 neutralization, 18 hour virus/Ab incubation” value was found to be 0.0435 µg/mL.

Regarding B6, the “IC50 neutralization, 1 hour virus/Ab incubation” value was over 50 µg/mL and the “IC50 neutralization, 18 hour virus/Ab incubation” value was over 50 µg/mL.

For the molecule B3, the “IC50 neutralization, 1 hour virus/Ab incubation” value was over 50 µg/mL and the “IC50 neutralization, 18 hour virus/Ab incubation” value was over 50 µg/mL.

Another assay has as its target HIV-1 94UG103 Env (HIV-1 strain 94UG103). Kind of assay: cell-based or functional assay.
In the case of B4, the “IC50 neutralization, 1 hour virus/Ab incubation” value is over 50 µg/mL and the “IC50 neutralization, 18 hour virus/Ab incubation” value was over 50 µg/mL.

B5: the “IC50 neutralization, 1 hour virus/Ab incubation” value came out at 0.334 µg/mL and the “IC50 neutralization, 18 hour virus/Ab incubation” value turned out to be 0.0942 µg/mL.

Turning to B2, the “IC50 neutralization, 1 hour virus/Ab incubation” value turned out to be 0.0211 µg/mL and the “IC50 neutralization, 18 hour virus/Ab incubation” value is 0.0085 µg/mL.

Regarding B6, the “IC50 neutralization, 1 hour virus/Ab incubation” value is over 50 µg/mL and the “IC50 neutralization, 18 hour virus/Ab incubation” value was over 50 µg/mL.

Regarding B3, the “IC50 neutralization, 1 hour virus/Ab incubation” value is over 50 µg/mL and the “IC50 neutralization, 18 hour virus/Ab incubation” value is over 50 µg/mL.

Another assay deals with T1, HIV-1 SF162 Env. Kind of assay: cell-based or functional assay. This is another data set of the same source.
Take B4: the “IC50 neutralization, 1 hour virus/Ab incubation” value amounted to 0.0069 µg/mL and the “IC50 neutralization, 18 hour virus/Ab incubation” value was under 0.0025 µg/mL.

With B5, the “IC50 neutralization, 1 hour virus/Ab incubation” value was over 50 µg/mL and the “IC50 neutralization, 18 hour virus/Ab incubation” value is over 50 µg/mL.

Consider B2, for which the “IC50 neutralization, 1 hour virus/Ab incubation” value was over 50 µg/mL and the “IC50 neutralization, 18 hour virus/Ab incubation” value was over 50 µg/mL.

Regarding B6, the “IC50 neutralization, 1 hour virus/Ab incubation” value was 0.195 µg/mL and the “IC50 neutralization, 18 hour virus/Ab incubation” value was 0.0661 µg/mL.
